The text below walks through data of US6897294 (Genentech, dated 2005).

The labels stand for the following.
B1: flt-1(1, 2, 3)/FLT4 chimeric receptor (receptor)
chain: YSMTPPTLSLKGTQHIMQAGQTLHLQCRGEAAHKWSLPEMVSKESERLSITKSACGRNGKQFCSTLTLNTAQANHTGFYSCKYLAVPTSKKKETESAIYIFISDTGRPFVEMYSEIPEIIHMTEGRELVIPCRVTSPNITVTLKKFPLDTLIPDGKRIIWDSRKGFIISNATYKEIGLLTCEATVNGHLYKTNYLTHRQTNTIIDVQISTPRPVKLLRGHTLVLNCTATTPLNTRVQMTWSYPDEKNKRASVRRRIDQSNSHANIFYSVLTIDKMQNKDKGLYTCRVRSGPSFKSVNTSVRVHENPFISVEWLKGPILEATAGDELVKLPVKLAAYPPPEFQWYKDGKALSGRHSPHALVLKEVTEASTGTYTLALWNSAAGLRRNISLELVVNVPPQIHEKEASSPSIYSRHSRQALTCTAYGVPLPLSIQWHWRPWTPCKMFAQRSLRRRQQQDLMPQCRDWRAVTTQDAVNPIESLDTWTEFVEGKNKTVSKLVIQNANVSAMYKCVVSNKVGQDERLIYFYVTTIPDGFTIESKPSEELLEGQPVLLSCQADSYKYEHLRWYRLNLSTLHDAHGNPLLLDCKNVHLFATPLAASLEEVAPGARHATLSLSIPRVAPEHEGHYVCEVQDRRSHDKHCHKKYLSVQALEAPRLTQNLTDLLVNVSDSLEMQCLVAGAHAPSIVWYKDERLLEEKSGVDLADSNQKLSIQRVREEDAGRYLCSVCNAKGCVNSSASVAVEGSEDKGSMEIVILVGTGVIAVFFWVLLLLIFCNMRRPAHADIKTGYLSIIMDPGEVPLEEQCEYLSYDASQWEFPRERLHLGRVLGYGAFGKVVEASAFGIHKGSSCDTVAVKMLKEGATASEHRALMSELKILIHIGNHLNVVNLLGACTKPQGPLMVIVEFCKYGNLSNFLRAKRDAFSPCAEKSPEQRGRFRAMVELARLDRRRPGSSDRVLFARFSKTEGGARRASPDQEAEDLWLSPLTMEDLVCYSFQVARGMEFLASRKCIHRDLAARNILLSESDVVKICDFGLARDIYKDPDYVRKGSARLPLKWMAPESIFDKVYTTQSDVWSFGVLLWEIFSLGASPYPGVQINEEFCQRLRDGTRMRAPELATPAIRRIMLNCWSGDPKARPAFSELVEILGDLLQGRGLQEEEEVCMAPRSSQSSEEGSFSQVSTMALHIAQADAEDSPPSLQRHSLAARYYNWVSFPGCLARGAETRGSSRMKTFEEFPMTPTTYKGSVDNQTDSGMVLASEEFEQIESRHRQESGFSCKGPGQNVAVTRAHPDSQGRRRRPERGARGGQVFYNSEYGELSEPSEEDHCSPSARVTFFTDNSY
notes: Stably expressed in NIH 3T3 cells for thymidine incorporation; also called flt-1 domains 1-3/FLT4 chimeric receptor
B2: intact FLT4 receptor (receptor)
chain: YSMTPPTLNITEESHVIDTGDSLSISCRGQHPLEWAWPGAQEAPATGDKDSEDTGVVRDCEGTDARPYCKVLLLHEVHANDTGSYVCYYKYIKARIEGTTAASSYVFVRDFEQPFINKPDTLLVNRKDAMWVPCLVSIPGLNVTLRSQSSVLWPDGQEVVWDDRRGMLVSTPLLHDALYLQCETTWGDQDFLSNPFLVHITGNELYDIQLLPRKSLELLVGEKLVLNCTVWAEFNSGVTFDWDYPGKQAERGKWVPERRSQQTHTELSSILTIHNVSQHDLGSYVCKANNGIQRFRESTEVIVHENPFISVEWLKGPILEATAGDELVKLPVKLAAYPPPEFQWYKDGKALSGRHSPHALVLKEVTEASTGTYTLALWNSAAGLRRNISLELVVNVPPQIHEKEASSPSIYSRHSRQALTCTAYGVPLPLSIQWHWRPWTPCKMFAQRSLRRRQQQDLMPQCRDWRAVTTQDAVNPIISLDTWTEFVQGKNKTVSKLVIQNANVSAMYKCVVSNKVGQDERLIYFYVTTIPDGFTIESKPSEELLEGQPVLLSCQADSYKYEHLRWYRLNLSTLHDAHGNPLLLDCKNVHLFATPLAASLEEVAPGARHATLSLSIPRVAPEHEGHYVCEVQDRRSHDKHCHKKYLSVQALEAPRLTQNLTDLLVNVSDSLEMQCLVAGAHAPSIVWYKDERLLEEKSGVDLADSNQKLSIQRVREEDAGRYLCSVCNAKGCVNSSASVAVEGSEDKGSMEIVILVGTGVIAVFFWVLLLLIFCNMRRPANADIKTGYLSIIMDPGEVPLEEQCEYLSYDASQWEFPRERLHLGRVLGYGAFGFVVEASAFGIHKGSSCDTVAVKMLKEGASASEHRALMSELKILIHIGNHLNVVNLLGACTKPQGPLMVIVEFCKYGNLSNFLRAKRDAFSPCAEKSPEQRGRFRAMVELARLDRRRPGSSDRVLFARFSKSEGGARRASPDQEAEDLWLSPLTMEDLVCYSFQVARGMEFLASRKCIHRDLAARNILLSESDVVKICDFGLARDIYKDPDYVRKGSARLPLKWMAPESIFDKVYTTQSDVMSFGVLLWEIFSLGASPYPGVQINEEFCQRLRDGTRMRAPELATPAIRRIMLNCWSGDPKARPAFSEVLEILGDLLQGRGLQEEEEVCMAPRSSQSSEEGSFSQVSTMALHIIQADAEDSPPSLQRHSLAARYYNWVSFPGCLARGAETRGSSRMKTFEEFPMTPTTYKGSVDNQTDSGMVLASEEFEQIESRHRQESGFSCKGPGQNVAVTRAHPDSQGRRRRPERGARGGQVFYNSEYGELSEPSEEDHCSPSARVTFFTDNSY
notes: Transiently expressed on 293 cells; also called entire human FLT4 receptor
B3: vascular endothelial growth factor VEGF165 (ligand, UniProt P15692-4 27-191, looked up)
chain: APMAEGGGQNHHEVVKFMDVYQRSYCHPIETLVDIFQEYPDEIEYIFKPSCVPLMRCGGCCNDEGLECVPTEESNITMQIMRIKPHQGQHIGEMSFLQHNKCECRPKKDRARQENPCGPCSERRKHLFVQDPQTCKCSCKNTDSRCKARQLELNERTCRCDKPRR
notes: mature; also called VEGF ligand

Experiment [1] deals with B3. The experiment can be described thus: saturation binding of 125I-VEGF to transiently transfected 293 cells, Scatchard analysis. Here is the method:
(§1) After preparation of these expression constructs, 293 cells were transfected with the constructs via DEAE-Dextran and transiently-expressing cells were analyzed for the ability to bind to the VEGF ligand. To detect binding of the VEGF ligand, a saturation binding assay was performed on transiently-expressing 293 cells expressing the intact FLT4 receptor, the flt-1 domain 2/FLT4 chimeric receptor, the flt-1 domains 1–3/FLT4 chimeric receptor, or the intact flt-1 receptor. […] The cell mixture was then layered over a 0.75 ml cushion of 30% sucrose, centrifuged for 10 minutes at maximum speed, and the pellet was recovered and counted in a gamma counter. […] The amount of counts added and the recovered counts bound were then subjected to scatchard analysis.

The target of experiment [2] is B3. Nature of the experiment: saturation binding of 125I-VEGF to transiently transfected 293 cells, background of non-transfected cells subtracted. Here is the method:
as §1

For experiment [3], the target named is T1, flt-1(2)/FLT4 chimeric receptor (human, UniProt P35916 25-1363).
T1 construct: Stably expressed in NIH 3T3 cells for thymidine incorporation; also called flt-1 domain 2/FLT4 chimeric receptor
Nature of the experiment: saturation binding of 125I-VEGF to transiently transfected 293 cells, Scatchard analysis. The protocol:
as §1

The target in experiment [4] is T2, flt(1,2): flt-1 Ig-like domains 1 and 2 only fused to the Fc of IgG (human, UniProt P01857-1 104-330 = IgG part, limits assumed).
T2 construct: domain: Fc of IgG; The true C-terminal limit may therefore be 225
T2 sequence (P01857 other isoform, or with tags, fused parts or gaps limits assumed): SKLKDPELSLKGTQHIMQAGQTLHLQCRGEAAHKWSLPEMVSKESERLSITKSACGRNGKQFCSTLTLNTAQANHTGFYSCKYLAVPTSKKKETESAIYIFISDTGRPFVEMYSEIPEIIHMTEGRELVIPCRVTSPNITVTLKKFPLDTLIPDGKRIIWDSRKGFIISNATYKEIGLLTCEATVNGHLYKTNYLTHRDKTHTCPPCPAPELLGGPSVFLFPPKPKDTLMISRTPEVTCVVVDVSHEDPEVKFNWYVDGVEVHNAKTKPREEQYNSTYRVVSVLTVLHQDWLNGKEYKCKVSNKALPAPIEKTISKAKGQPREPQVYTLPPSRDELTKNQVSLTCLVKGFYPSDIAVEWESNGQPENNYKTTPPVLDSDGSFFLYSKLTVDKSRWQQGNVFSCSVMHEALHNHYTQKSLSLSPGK
The experiment can be described thus: 125I-VEGF165 binding to chimeric protein captured on anti-human Fc coated plates (FIG. 4). Here is the method: (§2) Binding assays with the soluble chimeric VEGF receptors generated in Example 1 above were performed essentially as described by Park et al., *J. Biol. Chem.* 269:25646–25654 (1994). […] Plates were blocked for 1 hr with 10% fetal bovine serum in PBS (buffer B). After removal of the blocking buffer, 100 µl of a binding cocktail was added to each well. […] The specific activity of the iodinated VEGF was 5.69 ×10^7 cpm/microgram. Incubation in the coated wells proceeded for 4 hrs at room temperature, followed by 4 washes with buffer B. Binding was determined by counting individual wells in a gamma counter. Data was analyzed using a 4-parameter non-linear curve fitting program (Kalidagraph, Abelbeck Software).

The target in experiment [5] is T3, flt(2): flt-1 Ig-like domain 2 only fused to the Fc of IgG (human, UniProt P01857-1 104-330 = IgG part, limits assumed).
T3 construct: domain: Fc of IgG
T3 sequence (P01857 other isoform, or with tags, fused parts or gaps limits assumed): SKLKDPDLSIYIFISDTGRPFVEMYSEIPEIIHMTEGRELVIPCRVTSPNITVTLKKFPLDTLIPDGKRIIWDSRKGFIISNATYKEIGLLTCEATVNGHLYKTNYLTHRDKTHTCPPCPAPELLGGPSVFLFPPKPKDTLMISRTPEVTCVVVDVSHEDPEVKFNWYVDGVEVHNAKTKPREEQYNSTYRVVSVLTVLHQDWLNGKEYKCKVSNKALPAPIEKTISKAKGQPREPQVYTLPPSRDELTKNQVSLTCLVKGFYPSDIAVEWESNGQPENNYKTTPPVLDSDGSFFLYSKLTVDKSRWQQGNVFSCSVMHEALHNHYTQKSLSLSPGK
The experiment is described as above. The protocol: as §2

In experiment [6] the target is T4, flt-1 extracellular domain/IgG Fc chimera (flt-1/IgG) (human, UniProt P17948 27-758).
T4 construct: Secreted from CEN4 cells and used as conditioned medium quantified by Fc ELISA; also called intact flt-1/IgG chimeric VEGF receptor protein; native flt-1/IgG; not shown: Fc of human IgG1 (amino acids 216-443 of the Capon IgG gamma-1 heavy chain clone)
T4 sequence (P17948 other isoform, or with tags, fused parts or gaps mutant limits assumed): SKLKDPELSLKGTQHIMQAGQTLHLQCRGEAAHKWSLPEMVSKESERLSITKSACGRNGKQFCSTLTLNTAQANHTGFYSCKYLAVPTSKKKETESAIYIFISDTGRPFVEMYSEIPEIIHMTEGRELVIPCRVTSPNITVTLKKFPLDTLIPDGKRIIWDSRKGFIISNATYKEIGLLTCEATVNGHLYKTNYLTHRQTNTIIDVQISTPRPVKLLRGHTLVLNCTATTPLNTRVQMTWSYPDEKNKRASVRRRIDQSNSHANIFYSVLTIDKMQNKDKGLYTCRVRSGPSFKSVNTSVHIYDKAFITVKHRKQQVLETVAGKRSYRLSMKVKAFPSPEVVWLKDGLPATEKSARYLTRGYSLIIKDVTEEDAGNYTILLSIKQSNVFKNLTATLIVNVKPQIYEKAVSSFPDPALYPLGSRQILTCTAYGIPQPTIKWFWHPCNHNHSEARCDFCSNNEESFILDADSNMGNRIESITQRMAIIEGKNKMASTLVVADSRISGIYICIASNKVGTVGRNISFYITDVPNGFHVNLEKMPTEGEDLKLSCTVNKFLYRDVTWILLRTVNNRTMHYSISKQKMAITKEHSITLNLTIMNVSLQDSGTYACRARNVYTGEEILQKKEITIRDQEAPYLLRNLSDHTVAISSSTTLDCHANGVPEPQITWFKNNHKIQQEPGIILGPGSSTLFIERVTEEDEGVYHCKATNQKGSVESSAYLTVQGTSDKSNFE
Nature of the experiment: unlabeled VEGF titrated against 125I-VEGF165 binding to 1 ng immunoreactive flt-1/IgG on anti-Fc plates; 4-parameter fit (FIG. 5). Here is the method: as §2
Binding assays were performed essentially as described above. […] This occurs at the point of inflection of the curve. […] Thus, the flt(1, 2, 3) deletion chimera behaves in a similar fashion to the intact flt-1/IgG chimeric protein with respect to binding to the VEGF ligand.

The Kd is a measure of binding affinity in units of concentration. In turn, B1 yielded a Kd in experiment [1] of roughly 0.0104 nM.
Take B2: the binding result in experiment [2] is “no binding”.
In general, IC50 refers to the concentration needed to halve the response being measured. Low readings indicate greater potency, high ones weaker potency. In experiment [3], B3 came in with a Kd of roughly 0.0102 nM. The binding result in experiment [4] and in experiment [5] was “no binding” throughout. In experiment [6], this molecule had an IC50 of 1.89 ng/mL.
